Experimental data taken from article PMC9437119 (The Journal of Cell Biology, 2022).
Residue numbers refer to the chain shown, from its start. Names and notes keep the numbering of the source. Values joined by “and” are separate entries in the source; they are usually repeats but may differ in a detail not shown here. Equal entries are not always repeated.

B1: myc-tagged human Mid51 (WT) (natural protein, UniProt Q9NQG6 1-463, looked up)
chain: MAGAGERKGKKDDNGIGTAIDFVLSNARLVLGVGGAAMLGIATLAVKRMYDRAISAPTSPTRLSHSGKRSWEEPNWMGSPRLLNRDMKTGLSRSLQTLPTDSSTFDTDTFCPPRPKPVARKGQVDLKKSRLRMSLQEKLLTYYRNRAAIPAGEQARAKQAAVDICAELRSFLRAKLPDMPLRDMYLSGSLYDDLQVVTADHIQLIVPLVLEQNLWSCIPGEDTIMNVPGFFLVRRENPEYFPRGSSYWDRCVVGGYLSPKTVADTFEKVVAGSINWPAIGSLLDYVIRPAPPPEALTLEVQYERDKHLFIDFLPSVTLGDTVLVAKPHRLAQYDNLWRLSLRPAETARLRALDQADSGCRSLCLKILKAICKSTPALGHLTASQLTNVILHLAQEEADWSPDMLADRFLQALRGLISYLEAGVLPSALNPKVNLFAELTPEEIDELGYTLYCSLSEPEVLLQT
notes: Mid51 (MIEF1), human, outer mitochondrial membrane protein; plasmid generated using VectorBuilder; Seen as monomer, dimer, tetramer and HMW species on the IP immunoblot; also called MIEF1; WT Mid51; source: HeLa cells, transfected for 24 h, in lysate
B2: myc-tagged human Mid51(Y240N) (natural protein, UniProt Q9NQG6 1-463, looked up)
chain: B1 chain with Y240N
notes: Mid51 (MIEF1), human, variant Y240N linked to dominant optic atrophy; plasmid generated using VectorBuilder; source: HeLa cells, transfected for 24 h, in lysate

Target: the molecule itself
Test: SDS-resistant oligomers on SDS-PAGE immunoblot of the immunoprecipitate; anti-myc immunoprecipitate of the Mid51/Fis1 complex from HeLa lysate heated 20 min at 55°C, 4-20% Tris-Glycine SDS-PAGE; SDS-resistant complexes detected with anti-myc (Mid51 species) or anti-Flag (Fis1 species); species normalized to monomer

| Protein | stoichiometry N |
| --- | --- |
| B1 | 2 and 4 |
| B2 | 2 and 4 |
